Laboratory results reported in patent US20230110958A1 (Regeneron, published 2023).
Where a chain is given by its changes, count along the chain named.

T1: murine IL27 receptor (IL27Ra and gp130) on mouse cells (MC9/STAT3-Luc reporter cells; splenic CD4+ T cells) (mouse, UniProt O70394 25-623; Q00560 23-917)
T1 sequence (looked up) 1: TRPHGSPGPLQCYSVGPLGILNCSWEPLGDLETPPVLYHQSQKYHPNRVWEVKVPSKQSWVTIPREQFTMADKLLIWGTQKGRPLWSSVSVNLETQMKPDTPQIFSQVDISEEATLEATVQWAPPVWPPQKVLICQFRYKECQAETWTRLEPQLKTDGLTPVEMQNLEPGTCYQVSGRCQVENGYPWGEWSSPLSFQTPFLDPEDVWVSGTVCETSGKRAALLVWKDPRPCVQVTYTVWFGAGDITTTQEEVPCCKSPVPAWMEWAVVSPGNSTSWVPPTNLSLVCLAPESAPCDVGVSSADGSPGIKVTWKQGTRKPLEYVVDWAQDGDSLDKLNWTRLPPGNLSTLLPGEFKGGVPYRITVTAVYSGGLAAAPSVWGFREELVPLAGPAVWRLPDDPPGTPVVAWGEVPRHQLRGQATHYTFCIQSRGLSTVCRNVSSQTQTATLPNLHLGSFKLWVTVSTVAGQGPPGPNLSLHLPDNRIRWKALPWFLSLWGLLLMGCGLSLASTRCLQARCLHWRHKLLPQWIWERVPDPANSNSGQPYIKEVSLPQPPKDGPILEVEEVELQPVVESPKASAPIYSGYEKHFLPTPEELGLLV
T1 sequence (looked up) 2: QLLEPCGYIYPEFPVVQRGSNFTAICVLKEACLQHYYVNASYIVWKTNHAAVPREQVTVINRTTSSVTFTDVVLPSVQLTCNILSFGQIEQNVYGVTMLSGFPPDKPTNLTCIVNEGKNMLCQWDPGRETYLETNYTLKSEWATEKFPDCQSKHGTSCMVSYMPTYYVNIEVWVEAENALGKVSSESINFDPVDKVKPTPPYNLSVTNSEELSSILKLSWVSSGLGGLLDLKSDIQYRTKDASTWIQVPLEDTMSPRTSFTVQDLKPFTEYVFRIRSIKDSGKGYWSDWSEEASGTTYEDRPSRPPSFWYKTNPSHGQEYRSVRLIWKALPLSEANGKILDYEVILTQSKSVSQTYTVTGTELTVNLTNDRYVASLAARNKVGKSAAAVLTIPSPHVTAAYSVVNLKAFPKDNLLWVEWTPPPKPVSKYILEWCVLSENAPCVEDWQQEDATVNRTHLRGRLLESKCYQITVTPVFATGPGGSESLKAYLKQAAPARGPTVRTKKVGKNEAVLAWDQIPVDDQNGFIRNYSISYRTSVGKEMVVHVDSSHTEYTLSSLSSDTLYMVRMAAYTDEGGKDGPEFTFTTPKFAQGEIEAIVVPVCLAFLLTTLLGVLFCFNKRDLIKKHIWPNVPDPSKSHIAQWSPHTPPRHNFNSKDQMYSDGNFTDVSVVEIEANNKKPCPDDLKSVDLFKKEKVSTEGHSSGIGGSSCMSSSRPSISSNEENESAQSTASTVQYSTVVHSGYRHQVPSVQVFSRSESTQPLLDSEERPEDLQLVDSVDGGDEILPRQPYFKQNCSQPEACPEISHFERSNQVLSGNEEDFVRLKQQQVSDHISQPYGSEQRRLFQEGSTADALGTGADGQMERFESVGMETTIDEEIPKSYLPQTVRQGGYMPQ

B1: IL27M13, Bivalent p28-Fc (Fc fusion)
chain: FPTDPLSLQELRREFTVSLYLARKLLSEVQGYVHSFAESRLPGVNLDLLPLGYHLPNVSLTFQAWHHLSDSERLCFLATTLRPFPAMLGGLGTQGTWTSSEREQLWAMRLDLRDLHRHLRFQVLAAGFKCSKEEEDKEEEEEEEEEEKKLPLGALGGPNQVSSQVSWPQLLYTYQLLHSLELVLSRAVRDLLLLSLPRRPGSAWDSGGGGSGGGGSGGGGSESKYGPPCPPCPAPPVAGPSVFLFPPKPKDTLMISRTPEVTCVVVDVSQEDPEVQFNWYVDGVEVHNAKTKPREEQFNSTYRVVSVLTVLHQDWLNGKEYKCKVSNKGLPSSIEKTISKAKGQPREPQVYTLPPSQEEMTKNQVSLTCLVKGFYPSDIAVEWESNGQPENNYKTTPPVLDSDGSFFLYSRLTVDKSRWQEGNVFSCSVMHEALHNHYTQKSLSLSLGK
B2: IL27M6, monovalent Fc-p28 x EBI3 (Fc fusion)
chain 1: ESKYGPPCPPCPAPPVAGPSVFLFPPKPKDTLMISRTPEVTCVVVDVSQEDPEVQFNWYVDGVEVHNAKTKPREEQFNSTYRVVSVLTVLHQDWLNGKEYKCKVSNKGLPSSIEKTISKAKGQPREPQVYTLPPSQEEMTKNQVSLWCLVKGFYPSDIAVEWESNGQPENNYKTTPPVLDSDGSFFLYSRLTVDKSRWQEGNVFSCSVMHEALHNHYTQKSLSLSLGKGGGGSGGGGSGGGGSFPTDPLSLQELRREFTVSLYLARKLLSEVQGYVHSFAESRLPGVNLDLLPLGYHLPNVSLTFQAWHHLSDSERLCFLATTLRPFPAMLGGLGTQGTWTSSEREQLWAMRLDLRDLHRHLRFQVLAAGFKCSKEEEDKEEEEEEEEEEKKLPLGALGGPNQVSSQVSWPQLLYTYQLLHSLELVLSRAVRDLLLLSLPRRPGSAWDS
chain 2: ESKYGPPCPPCPAPPVAGPSVFLFPPKPKDTLMISRTPEVTCVVVDVSQEDPEVQFNWYVDGVEVHNAKTKPREEQFNSTYRVVSVLTVLHQDWLNGKEYKCKVSNKGLPSSIEKTISKAKGQPREPQVYTLPPSQEEMTKNQVSLSCAVKGFYPSDIAVEWESNGQPENNYKTTPPVLDSDGSFFLVSRLTVDKSRWQEGNVFSCSVMHEALHNRFTQKSLSLSPGKGGGGSGGGGSGGGGSYTETALVALSQPRVQCHASRYPVAVDCSWTPLQAPNSTRSTSFIATYRLGVATQQQSQPCLQRSPQASRCTIPDVHLFSTVPYMLNVTAVHPGGASSSLLAFVAERIIKPDPPEGVRLRTAGQRLQVLWHPPASWPFPDIFSLKYRLRYRRRGASHFRQVGPIEATTFTLRNSKPHAKYCIQVSAQDLTDYGKPSDWSLPGQVESAPHKP
B3: IL27M17, Bivalent Fc-p28 (Fc fusion)
chain: B2 chain 1 with W147T
B4: IL27M3, Bivalent p28-EBI3-Fc (Fc fusion)
chain: FPTDPLSLQELRREFTVSLYLARKLLSEVQGYVHSFAESRLPGVNLDLLPLGYHLPNVSLTFQAWHHLSDSERLCFLATTLRPFPAMLGGLGTQGTWTSSEREQLWAMRLDLRDLHRHLRFQVLAAGFKCSKEEEDKEEEEEEEEEEKKLPLGALGGPNQVSSQVSWPQLLYTYQLLHSLELVLSRAVRDLLLLSLPRRPGSAWDSGGGGSGGGGSGGGGSGGGGSGGGGSYTETALVALSQPRVQCHASRYPVAVDCSWTPLQAPNSTRSTSFIATYRLGVATQQQSQPCLQRSPQASRCTIPDVHLFSTVPYMLNVTAVHPGGASSSLLAFVAERIIKPDPPEGVRLRTAGQRLQVLWHPPASWPFPDIFSLKYRLRYRRRGASHFRQVGPIEATTFTLRNSKPHAKYCIQVSAQDLTDYGKPSDWSLPGQVESAPHKPGGGGSGGGGSGGGGSESKYGPPCPPCPAPPVAGPSVFLFPPKPKDTLMISRTPEVTCVVVDVSQEDPEVQFNWYVDGVEVHNAKTKPREEQFNSTYRVVSVLTVLHQDWLNGKEYKCKVSNKGLPSSIEKTISKAKGQPREPQVYTLPPSQEEMTKNQVSLTCLVKGFYPSDIAVEWESNGQPENNYKTTPPVLDSDGSFFLYSRLTVDKSRWQEGNVFSCSVMHEALHNHYTQKSLSLSLGK
B5: IL27M4, Bivalent Fc-EBI3-p28 (Fc fusion)
chain: ESKYGPPCPPCPAPPVAGPSVFLFPPKPKDTLMISRTPEVTCVVVDVSQEDPEVQFNWYVDGVEVHNAKTKPREEQFNSTYRVVSVLTVLHQDWLNGKEYKCKVSNKGLPSSIEKTISKAKGQPREPQVYTLPPSQEEMTKNQVSLTCLVKGFYPSDIAVEWESNGQPENNYKTTPPVLDSDGSFFLYSRLTVDKSRWQEGNVFSCSVMHEALHNHYTQKSLSLSLGKGGGGSGGGGSGGGGSYTETALVALSQPRVQCHASRYPVAVDCSWTPLQAPNSTRSTSFIATYRLGVATQQQSQPCLQRSPQASRCTIPDVHLFSTVPYMLNVTAVHPGGASSSLLAFVAERIIKPDPPEGVRLRTAGQRLQVLWHPPASWPFPDIFSLKYRLRYRRRGASHFRQVGPIEATTFTLRNSKPHAKYCIQVSAQDLTDYGKPSDWSLPGQVESAPHKPGGGGSGGGGSGGGGSGGGGSFPTDPLSLQELRREFTVSLYLARKLLSEVQGYVHSFAESRLPGVNLDLLPLGYHLPNVSLTFQAWHHLSDSERLCFLATTLRPFPAMLGGLGTQGTWTSSEREQLWAMRLDLRDLHRHLRFQVLAAGFKCSKEEEDKEEEEEEEEEEKKLPLGALGGPNQVSSQVSWPQLLYTYQLLHSLELVLSRAVRDLLLLSLPRRPGSAWDS
B6: IL27M5, Bivalent Fc-p28-EBI3 (Fc fusion)
chain: ESKYGPPCPPCPAPPVAGPSVFLFPPKPKDTLMISRTPEVTCVVVDVSQEDPEVQFNWYVDGVEVHNAKTKPREEQFNSTYRVVSVLTVLHQDWLNGKEYKCKVSNKGLPSSIEKTISKAKGQPREPQVYTLPPSQEEMTKNQVSLTCLVKGFYPSDIAVEWESNGQPENNYKTTPPVLDSDGSFFLYSRLTVDKSRWQEGNVFSCSVMHEALHNHYTQKSLSLSLGKGGGGSGGGGSGGGGSFPTDPLSLQELRREFTVSLYLARKLLSEVQGYVHSFAESRLPGVNLDLLPLGYHLPNVSLTFQAWHHLSDSERLCFLATTLRPFPAMLGGLGTQGTWTSSEREQLWAMRLDLRDLHRHLRFQVLAAGFKCSKEEEDKEEEEEEEEEEKKLPLGALGGPNQVSSQVSWPQLLYTYQLLHSLELVLSRAVRDLLLLSLPRRPGSAWDSGGGGSGGGGSGGGGSGGGGSGGGGSYTETALVALSQPRVQCHASRYPVAVDCSWTPLQAPNSTRSTSFIATYRLGVATQQQSQPCLQRSPQASRCTIPDVHLFSTVPYMLNVTAVHPGGASSSLLAFVAERIIKPDPPEGVRLRTAGQRLQVLWHPPASWPFPDIFSLKYRLRYRRRGASHFRQVGPIEATTFTLRNSKPHAKYCIQVSAQDLTDYGKPSDWSLPGQVESAPHKP
B7: IL27M12, monovalent EBI3-p28 x Fc (Fc fusion)
chain 1: YTETALVALSQPRVQCHASRYPVAVDCSWTPLQAPNSTRSTSFIATYRLGVATQQQSQPCLQRSPQASRCTIPDVHLFSTVPYMLNVTAVHPGGASSSLLAFVAERIIKPDPPEGVRLRTAGQRLQVLWHPPASWPFPDIFSLKYRLRYRRRGASHFRQVGPIEATTFTLRNSKPHAKYCIQVSAQDLTDYGKPSDWSLPGQVESAPHKPGGGGSGGGGSGGGGSGGGGSFPTDPLSLQELRREFTVSLYLARKLLSEVQGYVHSFAESRLPGVNLDLLPLGYHLPNVSLTFQAWHHLSDSERLCFLATTLRPFPAMLGGLGTQGTWTSSEREQLWAMRLDLRDLHRHLRFQVLAAGFKCSKEEEDKEEEEEEEEEEKKLPLGALGGPNQVSSQVSWPQLLYTYQLLHSLELVLSRAVRDLLLLSLPRRPGSAWDSGGGGSGGGGSGGGGSESKYGPPCPPCPAPPVAGPSVFLFPPKPKDTLMISRTPEVTCVVVDVSQEDPEVQFNWYVDGVEVHNAKTKPREEQFNSTYRVVSVLTVLHQDWLNGKEYKCKVSNKGLPSSIEKTISKAKGQPREPQVYTLPPSQEEMTKNQVSLWCLVKGFYPSDIAVEWESNGQPENNYKTTPPVLDSDGSFFLYSRLTVDKSRWQEGNVFSCSVMHEALHNHYTQKSLSLSLGK
chain 2: ESKYGPPCPPCPAPPVAGPSVFLFPPKPKDTLMISRTPEVTCVVVDVSQEDPEVQFNWYVDGVEVHNAKTKPREEQFNSTYRVVSVLTVLHQDWLNGKEYKCKVSNKGLPSSIEKTISKAKGQPREPQVYTLPPSQEEMTKNQVSLSCAVKGFYPSDIAVEWESNGQPENNYKTTPPVLDSDGSFFLVSRLTVDKSRWQEGNVFSCSVMHEALHNRFTQKSLSLSPGK

molecular target: T1, murine IL27 receptor (IL27Ra and gp130) …; test: cell-based or functional assay

Point of comparison: B3, “FOLD INDUCTION, STAT3 luciferase, MC9 cells” value 1.16 fold. Against it:
- B1 — lower, 1.11 fold
- B2 — higher, 2.8 fold
- B4 — higher, 3.02 fold
- B5 — higher, 2.78 fold
- B6 — higher, 2.91 fold
- B7 — higher, 2.68 fold

Point of comparison: B6, “EC50 (M), STAT3 luciferase, MC9 cells” value 4.19e-10 M. Against it:
- B2 — 13-fold lower, 3.21e-11 M
- B4 — 2.1-fold higher, 8.63e-10 M
- B5 — within 1.5-fold, 4.71e-10 M
- B7 — 34-fold lower, 1.22e-11 M
